Experimental data taken from PMC10156745, “Tuning charge density of chimeric antigen receptor optimizes tonic signaling and CAR-T cell fitness” (Cell Research, 2023).

Target: T1, CD19 on Nalm6 cells (Homo sapiens, UniProt P15391)
T1 construct: CD19 (B-lymphocyte antigen CD19) on the surface of Nalm6 cells; this is surmised; source: Nalm6 cells expressing CD19 on the cell surface
Assay: flow cytometry on cells; purified antibodies titrated on Nalm6 cells expressing CD19; cell-based FACS assay
Conditions: one partner purified

T1 sequence (P15391 20-556): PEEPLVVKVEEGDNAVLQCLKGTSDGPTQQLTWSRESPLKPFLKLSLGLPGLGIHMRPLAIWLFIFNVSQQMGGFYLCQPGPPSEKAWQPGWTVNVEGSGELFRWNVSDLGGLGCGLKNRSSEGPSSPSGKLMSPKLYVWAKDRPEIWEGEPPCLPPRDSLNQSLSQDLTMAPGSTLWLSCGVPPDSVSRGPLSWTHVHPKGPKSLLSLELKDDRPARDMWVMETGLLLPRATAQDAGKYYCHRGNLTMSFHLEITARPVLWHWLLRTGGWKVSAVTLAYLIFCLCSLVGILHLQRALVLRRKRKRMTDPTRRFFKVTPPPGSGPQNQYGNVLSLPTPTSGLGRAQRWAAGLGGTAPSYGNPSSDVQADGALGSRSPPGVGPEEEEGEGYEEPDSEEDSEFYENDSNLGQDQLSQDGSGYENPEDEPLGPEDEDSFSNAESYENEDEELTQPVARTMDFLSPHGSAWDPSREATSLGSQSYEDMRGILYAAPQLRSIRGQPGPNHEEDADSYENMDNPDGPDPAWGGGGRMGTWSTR

EC50: 2.6 nM
B1: CD19^M1 antibody (antibody, V domains shown)
VH: EVKLKESGPGLVAPSQSLSVTCKASGVSLPDYGVSWIRQPPRKGLEWLGVIWGSETTYYNSALKSRLTIIKDNSKSQVFLKMNSLQTDDTAIYYCAKHYYYGGSYAMDYWGQGTSVTVSS
VL: DIKMTQTTSSLSASLGDRVTISCRASQDISKYLNWYQQKPDGTVKLLIYHTSRLHSGVPSRFSGSGSGTDYSLTISNLEQEDIATYFCQQGNTLPYTFGGGTKLEIK
notes: as the VH of m1 (FMC63) with uncharged framework residues mutated to lysines; human IgG1 constant region, fused to the variable region in the pCMV plasmid; as the VL of m1 (FMC63) with uncharged framework residues mutated to lysines; light-chain constant region; IgG1 format; Variant of FMC63 with positively charged patches introduced into the framework regions; also called PCP-modified CD19 …
